{"source": "patent US20040001839A1", "about": "(published 2004)", "binders": {"B1": {"name": "F-YY (peptide)", "peptide": "VRPEHPAETEYESLYPEDDL", "notes": "also called Fibrinogen-γ-prime chain peptide, non-sulfated"}, "B2": {"name": "CONY1 (scFv)", "scFv": "EVQLVESGGGVVRPGGSLRLSCAASGFTFDDYGMSWVRQAPGKGLEWVSGINWNGGSTGYADSVKGRFTISRDNAKNSLYLQMNSLRAEDTAVYYCARMRAPVIWGQGTLVTVSRGGGGSGGGGSGGGGSSELTQDPAVSVALGQTVRITCQGDSLRSYYASWYQQKPGQAPVLVIYGKNNRPSGIPDRFSGSSSGNTASLTITGAQAEDEADYYCNSRDSSGNHVVFGGGTKLTVLGAAAKAK", "notes": "also called Y1-kak; Y1 scFv monomer"}, "B3": {"name": "Y1 scFv (scFv)", "scFv": "EVQLVESGGGVVRPGGSLRLSCAASGFTFDDYGMSWVRQAPGKGLEWVSGINWNGGSTGYADSVKGRFTISRDNAKNSLYLQMNSLRAEDTAVYYCARMRAPVIWGQGTLVTVSRGGGGSGGGGSGGGGSSELTQDPAVSVALGQTVRITCQGDSLRSYYASWYQQKPGQAPVLVIYGKNNRPSGIPDRFSGSSSGNTASLTITGAQAEDEADYYCNSRDSSGNHVVFGGGTKLTVLGAAAEQKLISEEDLNGAA", "notes": "Fully human scFv from the Nissim I phage library; Used biotin-labelled in most Western blots; also called scFv Y1; scFv-Y1"}, "B4": {"name": "Y17 scFv (scFv)", "scFv": "EVQLVESGGGVVRPGGSLRLSCAASGFTFDDYGMSWVRQAPGKGLEWVSGINWNGGSTGYADSVKGRFTISRDNAKNSLYLQMNSLRAEDTAVYYCARLTHPYFWGQGTLVTVSRGGGGSGGGGSGGGGSSELTQDPAVSVALGQTVRITCQGDSLRSYYASWYQQKPGQAPVLVIYGKNNRPSGIPDRFSGSSSGNTASLTITGAQAEDEADYYCNSRDSSGNHVVFGGGTKLTVLGAAAEQKLISEEDLNGAA", "notes": "Human scFv selected on platelets in the same way as Y1; also called biotin labeled-Y17"}, "B5": {"name": "P-3-S (peptide)", "peptide": "GDEGDTDLY(sulfate)DY(sulfate)Y(sulfate)P", "notes": "also called residues 268-280 of GPIbα, sulfated"}, "B6": {"name": "Y1-IgG (antibody, V domains shown)", "VH": "EVQLVESGGGVVRPGGSLRLSCAASGFTFDDYGMSWVRQAPGKGLEWVSGINWNGGSTGYADSVKGRFTISRDNAKNSLYLQMNSLRAEDTAVYYCARMRAPVIWGQGTLVTVSR", "VL": "SELTQDPAVSVALGQTVRITCQGDSLRSYYASWYQQKPGQAPVLVIYGKNNRPSGIPDRFSGSSSGNTASLTITGAQAEDEADYYCNSRDSSGNHVVFGGGTKLTVL"}, "B7": {"name": "P-2-S (peptide)", "peptide": "TDLY(sulfate)DY(sulfate)Y(sulfate)PEEDTE", "notes": "also called residues 273-285 of GPIbα, sulfated"}, "B8": {"name": "Y1-cys-kak (cysteine dimer) (other)", "scFv 1": "MEVQLVESGGGVVRPGGSLRLSCAASGFTFDDYGMSWVRQAPGKGLEWVSGINWNGGSTGYADSVKGRFTISRDNAKNSLYLQMNSLRAEDTAVYYCARMRAPVIWGQGTLVTVSRGGGGSGGGGSGGGGSSELTQDPAVSVALGQTVRITCQGDSLRSYYASWYQQKPGQAPVLVIYGKNNRPSGIPDRFSGSSSGNTASLTITGAQAEDEADYYCNSRDSSGNHVVFGGGTKLTVLGGGGCKAK", "scFv 2": "MEVQLVESGGGVVRPGGSLRLSCAASGFTFDDYGMSWVRQAPGKGLEWVSGINWNGGSTGYADSVKGRFTISRDNAKNSLYLQMNSLRAEDTAVYYCARMRAPVIWGQGTLVTVSRGGGGSGGGGSGGGGSSELTQDPAVSVALGQTVRITCQGDSLRSYYASWYQQKPGQAPVLVIYGKNNRPSGIPDRFSGSSSGNTASLTITGAQAEDEADYYCNSRDSSGNHVVFGGGTKLTVLGGGGCKAK", "modifications": "Interchain disulfide between Cys 243 of chain 1 and Cys 243 of chain 2; in the FACS of paragraph 474 the dimer also carried FITC.", "notes": "also called Y1-cys-kak scFv dimer; S-S Y1 dimer"}, "B9": {"name": "F-Y*Y* (peptide)", "peptide": "VRPEHPAETEY(sulfate)ESLY(sulfate)PEDDL", "notes": "also called Fibrinogen-γ-prime chain peptide, sulfated"}}, "key": {"[1]": {"target": "B3", "assay": "competition ELISA: peptide (1, 10, 100 µM) preincubated with scFv Y1, binding to immobilized glycocalicin"}, "[2]": {"target": "T1, PSGL-1 on KG-1 cells (human, UniProt Q14242 42-412, sulfated tyrosine residues at the N-terminal site)", "T1 construct": "whole, on cells; results on KG-1 cells, lysates and membrane fractions are written against this molecule; also called CD162; P-Selectin Glycoprotein Ligand-1", "T1 sequence (looked up)": "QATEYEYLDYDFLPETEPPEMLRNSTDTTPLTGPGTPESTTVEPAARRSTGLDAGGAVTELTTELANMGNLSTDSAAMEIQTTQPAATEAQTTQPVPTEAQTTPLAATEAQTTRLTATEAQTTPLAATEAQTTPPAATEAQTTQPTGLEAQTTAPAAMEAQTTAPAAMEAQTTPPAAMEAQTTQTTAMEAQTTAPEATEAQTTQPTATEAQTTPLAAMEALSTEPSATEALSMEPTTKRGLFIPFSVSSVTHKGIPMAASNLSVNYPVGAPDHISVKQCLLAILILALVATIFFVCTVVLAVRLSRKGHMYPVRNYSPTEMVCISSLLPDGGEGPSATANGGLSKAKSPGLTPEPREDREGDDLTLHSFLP", "assay": "second radio receptor binding assay on KG-1 cells, labeled tracer 100 ng/tube", "protocol": "(§1) The assay tubes contained 5×10⁶ KG-1 cells per 0.2 ml and a labeled tracer with varying amounts of unlabeled competitor, in PBS+0.1% BSA, pH 7.4. After one hour incubation with agitation at 4° C., the cells were thoroughly washed with cold buffer and taken for radioactivity counting."}, "[3]": {"target": "B3", "assay": "competition ELISA: Y1 0.25 µg/well preincubated with peptide at 25 µM, residual binding to glycocalicin"}, "[4]": {"target": "B3", "assay": "competitive FACS: Y1-scFv 1 µg preincubated with peptide at 200 µM, residual binding to washed platelets", "protocol": "(§2) In addition, FACS analysis using washed platelets was carried out. […] A polystyrene microtiter maxisorb plate was coated with (a) purified glycocalicin or (b) washed platelets. […] The plate was then incubated with rabbit anti-scFv followed by addition of anti rabbit-HRP (horse radish peroxidase) and HRP substrate. […] The optical density was measured at A₄₀₅. Each sample was assayed in duplicate, and the average was calculated."}, "[5]": {"target": "B3", "assay": "competitive FACS: Y1-scFv 1 µg preincubated with peptide at 2.5 µM, residual binding to washed platelets", "protocol": "as §2"}, "[6]": {"target": "B3", "assay": "competition ELISA: Y1 0.25 µg/well preincubated with peptide at 2.5 µM, residual binding to glycocalicin"}, "[7]": {"target": "B3", "assay": "competition ELISA: Y1 0.25 µg/well preincubated with peptide at 0.5 µM, residual binding to glycocalicin"}, "[8]": {"target": "T2, Lumican (human, UniProt P51884 19-338, contains sulfated tyrosine residues)", "T2 construct": "The ~80 kDa band was identified as CC4 and lumican together; also called human lumican; H P-ligand 2", "T2 sequence (looked up)": "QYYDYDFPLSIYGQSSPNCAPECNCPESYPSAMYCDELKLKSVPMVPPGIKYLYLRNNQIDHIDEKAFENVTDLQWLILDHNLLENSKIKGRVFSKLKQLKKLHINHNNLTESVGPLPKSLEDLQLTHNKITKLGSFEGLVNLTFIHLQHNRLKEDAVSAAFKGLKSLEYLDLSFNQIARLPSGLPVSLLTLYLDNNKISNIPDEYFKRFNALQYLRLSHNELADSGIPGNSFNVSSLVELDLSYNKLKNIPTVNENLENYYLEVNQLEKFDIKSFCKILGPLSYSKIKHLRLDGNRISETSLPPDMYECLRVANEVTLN", "assay": "Western blot of human plasma proteins"}, "[9]": {"target": "T1, PSGL-1 on KG-1 cells", "assay": "Western blot of RP-HPLC KG-1 membrane fraction after O-Sialo glycoprotein endopeptidase, 30' at 37° C."}, "[10]": {"target": "T3, GPIbα small N-terminal 42 kDa fragment (His1-Leu275) (human, UniProt P07359 17-291)", "T3 construct": "also called smaller N-terminal fragment (cathepsin G)", "T3 sequence (P07359 17-291 limits assumed)": "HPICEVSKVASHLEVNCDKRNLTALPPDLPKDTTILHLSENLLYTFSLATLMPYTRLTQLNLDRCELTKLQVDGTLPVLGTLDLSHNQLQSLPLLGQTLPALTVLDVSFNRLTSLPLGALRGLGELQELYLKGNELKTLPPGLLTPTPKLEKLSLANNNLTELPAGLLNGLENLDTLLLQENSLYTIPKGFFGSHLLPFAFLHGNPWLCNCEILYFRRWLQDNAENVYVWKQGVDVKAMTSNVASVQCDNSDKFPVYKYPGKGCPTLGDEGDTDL", "assay": "Western blot of cathepsin G digested glycocalicin", "description": "Glycocalicin and glycocalicin fragments generated by cathepsin G digestion were separated on SDS-polyacrylamide gels and transferred to nitrocellulose."}, "[11]": {"target": "T1, PSGL-1 on KG-1 cells", "assay": "FACS on KG-1 cells"}, "[12]": {"target": "T1, PSGL-1 on KG-1 cells", "assay": "radio receptor binding assay on KG-1 cells, tracer 125I-Y1-IgG 2 ng/tube", "protocol": "as §1"}, "[13]": {"target": "T1, PSGL-1 on KG-1 cells", "assay": "FACS on KG-1 cells, FITC-labeled"}, "[14]": {"target": "T1, PSGL-1 on KG-1 cells", "assay": "radioreceptor assay, ELISA or FACS; KG-1 cells"}, "[15]": {"target": "T1, PSGL-1 on KG-1 cells", "assay": "radio receptor assay on KG-1 cells, dimer as competitor"}}, "note": "No end group written: not given here. *: point of attachment. sulfate = O=S(=O)(O)*", "data": [{"binder": "B1", "values": [{"measurement": "binding result", "setting": "[1]", "value": "no binding (tested: 100 µM)"}]}, {"binder": "B2", "values": [{"measurement": "Kd", "setting": "[2]", "value": "~1000", "unit": "nM"}]}, {"binder": "REEGRQHFFLLEGRSSYS (also called negative control peptide)", "note": "[EGR]", "values": [{"measurement": "Residual Binding of Y1 (% of baseline)", "setting": "[3]", "value": 89, "unit": "%"}, {"measurement": "Residual Binding of Y1 (% of baseline) (Geo Mean)", "setting": "[4]", "value": 119, "unit": "%"}, {"measurement": "Residual Binding of Y1 (% of baseline) (Geo Mean)", "setting": "[5]", "value": 96, "unit": "%"}, {"measurement": "Residual Binding of Y1 (% of baseline)", "setting": "[6]", "value": 100, "unit": "%"}, {"measurement": "Residual Binding of Y1 (% of baseline)", "setting": "[7]", "value": 121, "unit": "%"}]}, {"binder": "B3", "values": [{"measurement": "binding result", "setting": "[8]", "value": "binds"}, {"measurement": "binding result", "setting": "[9]", "value": "binds"}]}, {"binder": "B4", "values": [{"measurement": "binding result", "setting": "[10]", "value": "no binding"}, {"measurement": "binding result", "setting": "[11]", "value": "binds"}]}, {"binder": "B5", "values": [{"measurement": "Residual Binding of Y1 (% of baseline)", "setting": "[3]", "value": 21, "unit": "%"}, {"measurement": "Residual Binding of Y1 (% of baseline) (Geo Mean)", "setting": "[4]", "value": 26, "unit": "%"}, {"measurement": "Residual Binding of Y1 (% of baseline) (Geo Mean)", "setting": "[5]", "value": 82, "unit": "%"}, {"measurement": "Residual Binding of Y1 (% of baseline)", "setting": "[6]", "value": 67, "unit": "%"}, {"measurement": "Residual Binding of Y1 (% of baseline)", "setting": "[7]", "value": 80, "unit": "%"}]}, {"binder": "B6", "values": [{"measurement": "Kd", "setting": "[12]", "value": "~20", "unit": "nM"}]}, {"binder": "B7", "values": [{"measurement": "Residual Binding of Y1 (% of baseline)", "setting": "[3]", "value": 15, "unit": "%"}, {"measurement": "Residual Binding of Y1 (% of baseline) (Geo Mean)", "setting": "[4]", "value": 7, "unit": "%"}, {"measurement": "Residual Binding of Y1 (% of baseline) (Geo Mean)", "setting": "[5]", "value": 61, "unit": "%"}, {"measurement": "Residual Binding of Y1 (% of baseline)", "setting": "[6]", "value": 52, "unit": "%"}, {"measurement": "Residual Binding of Y1 (% of baseline)", "setting": "[7]", "value": 78, "unit": "%"}]}, {"binder": "B8", "values": [{"measurement": "fold less material than the monomer", "setting": "[13]", "value": 10, "unit": "fold"}, {"measurement": "Kd", "setting": "[2]", "value": "~50", "unit": "nM"}, {"measurement": "fold higher affinity than CONY1", "setting": "[2]", "value": 20, "unit": "fold"}, {"measurement": "Kd", "setting": "[12]", "value": "~40", "unit": "nM"}, {"measurement": "fold higher affinity than CONY1", "setting": "[12]", "value": 30, "unit": "fold"}, {"measurement": "fold lower affinity than the full Y1 antibody", "setting": "[12]", "value": 2, "unit": "fold"}, {"measurement": "fold higher binding than the Y1 scFv monomer", "setting": "[14]", "value": "≥ 20", "unit": "fold"}, {"measurement": "fold more efficient than the monomer", "setting": "[15]", "value": 30, "unit": "fold"}]}, {"binder": "B9", "values": [{"measurement": "binding result", "setting": "[1]", "value": "no binding (tested: 100 µM)"}]}]}
